Data set [1] deals with T1, OATP1A2 (Homo sapiens, UniProt P46721).
T1 sequence (P46721 whole entry): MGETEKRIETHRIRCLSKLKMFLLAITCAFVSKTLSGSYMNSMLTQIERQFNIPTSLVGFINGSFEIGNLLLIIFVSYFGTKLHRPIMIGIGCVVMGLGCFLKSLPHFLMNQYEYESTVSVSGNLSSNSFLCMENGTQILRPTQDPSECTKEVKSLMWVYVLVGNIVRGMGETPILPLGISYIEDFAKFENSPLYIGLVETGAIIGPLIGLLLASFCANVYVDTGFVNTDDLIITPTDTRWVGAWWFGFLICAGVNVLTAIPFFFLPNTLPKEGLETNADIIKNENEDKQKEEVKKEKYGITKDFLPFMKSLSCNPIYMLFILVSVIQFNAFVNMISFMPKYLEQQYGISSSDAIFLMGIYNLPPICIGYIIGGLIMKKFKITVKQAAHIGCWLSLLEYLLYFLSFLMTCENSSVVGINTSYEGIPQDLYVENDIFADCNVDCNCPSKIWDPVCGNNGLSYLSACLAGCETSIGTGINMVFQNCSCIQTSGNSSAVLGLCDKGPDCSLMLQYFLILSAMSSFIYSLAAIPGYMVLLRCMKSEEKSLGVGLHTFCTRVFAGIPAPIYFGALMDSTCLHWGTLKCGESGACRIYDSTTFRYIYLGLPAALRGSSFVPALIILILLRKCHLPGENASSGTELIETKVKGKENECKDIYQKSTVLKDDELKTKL
Kind of data set: (§1) Cellular uptake in HEK293 cells assessed as human OATP1A2-mediated drug uptake at 0.05 uM after 1 min by Eadie-Hofstee plot analysis. The class given is ADME, cell-based. Particulars: HEK293 cells expressing human OATP1A2.

Data set [2] deals with T2, Solute carrier organic anion transporter family member 1A2 (Homo sapiens, UniProt P46721).
T2 sequence (P46721 whole entry): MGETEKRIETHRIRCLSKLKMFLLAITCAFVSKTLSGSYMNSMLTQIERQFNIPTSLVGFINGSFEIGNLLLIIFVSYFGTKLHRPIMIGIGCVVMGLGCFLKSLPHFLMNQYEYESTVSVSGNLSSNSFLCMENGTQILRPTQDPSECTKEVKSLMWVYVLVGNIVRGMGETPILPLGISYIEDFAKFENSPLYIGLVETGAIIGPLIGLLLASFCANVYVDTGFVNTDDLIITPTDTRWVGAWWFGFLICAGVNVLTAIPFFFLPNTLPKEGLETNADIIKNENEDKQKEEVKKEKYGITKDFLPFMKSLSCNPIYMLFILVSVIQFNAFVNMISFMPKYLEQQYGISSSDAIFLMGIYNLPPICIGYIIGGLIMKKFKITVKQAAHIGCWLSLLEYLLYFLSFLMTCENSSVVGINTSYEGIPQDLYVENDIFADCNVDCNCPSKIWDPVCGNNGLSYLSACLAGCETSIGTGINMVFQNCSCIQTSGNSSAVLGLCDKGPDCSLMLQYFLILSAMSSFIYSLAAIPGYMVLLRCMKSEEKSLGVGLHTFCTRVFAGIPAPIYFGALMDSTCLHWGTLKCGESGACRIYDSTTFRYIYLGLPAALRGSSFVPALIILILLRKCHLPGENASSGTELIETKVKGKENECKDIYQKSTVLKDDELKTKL
The description is as §1. The class given is ADME, cell-based. Particulars: hek293, 1 min, 0.05 µM.

For data set [3], the target named is T1, OATP1A2. The data set can be described thus: Cellular uptake in Xenopus oocytes cells assessed as OATP1A2 (unknown origin)-mediated drug uptake. The format is ADME, cell-based, Oocyte. Particulars: Xenopus oocytes expressing OATP1A2.
Substrate in data set [4]: C[C@]12CC[C@@H]3c4ccc(OS(=O)(=O)O)cc4CC[C@H]3[C@@H]1CCC2=O
The data set can be described thus: Cellular uptake in HEK293 cells assessed as bovine high affinity site of OATP1A2-mediated drug uptake at 0.01 to 50 uM after 1 min by Eadie-Hofstee plot analysis. The format is ADME, cell-based, Bos taurus.

Substrate in data set [5]: C[C@]12CC[C@@H]3c4ccc(OS(=O)(=O)O)cc4CC[C@H]3[C@@H]1CCC2=O
Kind of data set: Cellular uptake in HEK293 cells assessed as bovine low affinity site of OATP1A2-mediated drug uptake at 0.01 to 50 uM after 1 min by Eadie-Hofstee plot analysis. The class given is ADME, cell-based, Bos taurus.

By Km is commonly meant the substrate concentration at which the rate is half of its maximum. In general, Vmax refers to the rate approached at saturating substrate. For the molecule `C[C@]12CC[C@@H]3c4ccc(OS(=O)(=O)O)cc4CC[C@H]3[C@@H]1CCC2=O` [ESTRONE SULFURIC ACID], on OATP1A2 [1], the Km at 1 min turned out to be 16.1 µM. Also, in data set [2], the Vmax is listed as 39.4 pmol/mg/min. Further, on OATP1A2 [3], the Km came out at 9.6 µM.

B1: Solute carrier organic anion transporter family member (Bos taurus) (protein)
chain: MGETEERIETHRIRCLSKLKMFLLAITCAFVSKTLSGSYMNSMITQIERQFNIPTSLVGFINGSFEIGNLLLIIFVSYFGTKLHRPIMIGVGCVVMGLGCFLQSLPHFLMGRYEYESTVSVSGNLSSNSFLCMENGTQIFKPTKDPSECVKEVKSLMWVYVLVGNIIRGIGETPIMPLGISYIEDFAKFENSPLYIGLIKTGGIIGPLIGLSLASFCANVYVDTESVNTDDLTITPSDTRWVGAWWIGFLICAGVNVLTAIPFFFLPKTLPKEGLEENAEIIKNDKEKQEDIKKKRDAITKDFLPFMKSLLCNPIYMLFILISVLQFNAFVSMVSFMPKYMEQHYGKSASEAIFLLGIYNFPPICIGYIVGGLFMKKFKITAVQAAHIGCWLSFTEYLLHFLCFFMICDSSSVAGLTTSYEGIHQNLRVKNFLADCNMDCNCPTKVWDPVCGNNGLSYTSACLAGCEISSGTGRKMVFQNCSCIQTPGNSSAVLGLCDKGKDCSMMLQYFLILSVFSSFIFSLSAIPGYMVLLRCVKPEEKSLGVGLHAFCTRVLAGIPAPIYFGALVDSTCLHWGTLKCGESGACRIYDSNSFRYIYLGIPAALRGSSYIPAFLILFILRKYRLPGENASSETMLVAKFTGKENEGKEMDQNAKVLNDDELKTKL
Take B1: the Km in data set [4] is 0.25 µM; in data set [5], 46.6 µM. Moreover, the Vmax in data set [4] is 2.45e-05 µmol/min/mg; in data set [5] it was 0.000375 µmol/min/mg.

The values above are taken from ChEMBL document CHEMBL3525993, “Identification of multiple binding sites for substrate transport in bovine organic anion transporting polypeptide 1a2” (Drug Metab Dispos, 2013).
